Experiment: yeast display, Sf9 membrane polyspecificity reagent, FACS + sequencing; frameworks hold sequencing errors
Summary of the method: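 Synthetic nanobody libraries on Saccharomyces cerevisiae BJ5465 were galactose-induced for 36–48 hours, stained 1 hour at 4 °C with 10% biotinylated, detergent-solubilized Sf9 membrane reagent and enriched on streptavidin microbeads. FACS then separated cells into low and high (top ~1%) gates by anti-HA (expression) and streptavidin (reagent binding) fluorescence. Genes were colony-PCR amplified, MiSeq 2 × 250 sequenced and CDR-length filtered. A clone's polyreactivity label is that of its gate of origin.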

| Sequence | polyreactivity (PSR sort gate) |
| --- | --- |
| QVQLVESGVGLVQAGGSLRLSCAASGFTFMKNAMGWYRQAPGKERELVAAITSSGGRPYYADSVKGRFTISRDIAKNTVYLQMNSLKPEDTAVYYCNKGPLPGYDYWGQGTQVTVSS | high polyreactivity |
| QVQLVESAGGLVQAGGSLRLSCAASGRIFARYAMGWYRQAPGKVRELVAAISASGGSTYYADSVKGRFTISRDNAKYTVYLQMNSLKPEDTAVYYCAARFSYPYRIAFNYWGQGTQVTVSS | low polyreactivity |
| QVQLVESGGGLVQAGGSLRLSCAASGNIFRINGMGWYRQAPGKERELVASITRSGSTYYADSVKGRFTISRDNANNTVYLKMNSLKPEDTAVYYCAADSRRYGVRFDYWGQGTQVTVSS | low polyreactivity |
| QLQLVESGGGLVQAGGSLRFSCAASGYISRRYAMVWSIQAPGKERELVAAITGGGGSTYYADSVKGRFTISRDNAKNTVYLQMNSLKPEFTAVYYCNAYWGRSGYAGGYWGQGTQVTVSS | high polyreactivity |
| QVQLVESGGGLVQAGGSLRLSCAASGSTFTYYAMGWYSQAPGKERELVARIRASGGSTYYADSVKGRFTISRDTAKNTDYLQMNSLKPEDTAVYYCAAQLYFLYRTYDYWGQGTQVTVSS | high polyreactivity |
| QVQLVESGGGLVQAGGSLRLSCAASGIIFNTYAMGWYRQAPGKERELVAAISSSGGRTYYADSVKGRFTISRDHAKNTVYLQMNSLTPEDTAVYNCNKVQNRGPRTNARKFDYWGQGTQVTVSS | high polyreactivity |
| QDLLVDSGGGLLQAGGSLRLSCAASGSIFYTNTMGWYRHAPGKERALVAAISYSDSTTYYADSVKGRFTISRDNAKNSVYLQMNSLKPEDTAVYYCAAQQFYTYYQTYDYWGQGTQVTVSS | high polyreactivity |
| QVQLVESAGGLVQAGGRLRLSCAASGFIFYRYAMGWYRQAPGKERELVAAISRNGGSTYYADSVKGRFTISRDNAKNTVYLQRNILKPEDTAVYYCNVDYRLVRIRVDYEYWGQGTQVTVSS | high polyreactivity |
| QVQLVESGGGLVQAAGSLRLSCAASGFIFRYNVMGWYRQAPGKERELVAAISTSGGRTYFADSEKGRFTISRDNAKNTGYLQMNSLKPEDTEVYYCNAVKSEGQKVRDGYYWGQGTQVTVSS | high polyreactivity |
| QVQLVESGVGLVQARGSLRLSCAASGYIFTIYAMGWYRHAPGKERELVAAITWSGATTYYADSVKGRFTISRDNAKNTVYLQMNILKPEDTAVYYCNADYWHYYEDYDSWGQGTQVTVSS | low polyreactivity |
| QVQLVDSGGGLVQAGGSLRLSCAPSGSTFGYNAMGWYRQAPGKERELVAAITWSGGSTYYADSVKGRFTISRDNAKNTVYLQMNSLKPEDTAVYYCAADDWYNSKWHYYSWGQGTQLTVSS | low polyreactivity |
| QVQLVESGGGLVQAGCSLRLSCAASGSIVDPYAMGWYRQAPRKEREWVAAISGSGGSTYYADSVKGRFTISRDNAKNTVYLQMNSLKPVDTSVYYCAAADAWWGRRYKYYHWGQGTQVTVSS | low polyreactivity |
| QVQLVESGGGLVQAGGSLRLSCAASGRIFYSYAMGWYRQAPGKERELVAALYSDGSTDYADSVKGRFTISRDNAKNTVYLQMNSLTPEDTAVYFCAADWGWRYVLPVGWFRYGYWGQGTQVTVSS | low polyreactivity |
| QVQLVESGGGIVQAGGSLPLSCAASGSTYNSYAMGWYRQAPGKDRELVAGISYIGGRTYYADSVKGRFTISRDNAKNTVYLQMNSLKPEDTAVYYCAAVYWYGRRKYYSWGQGTQVTVSS | high polyreactivity |
| QVQLVESGGGLVQAGGSLRLSCAASGYTFRYYAMGWYRQAPGKERELVARITGRAGSTYYADSVKGRFTISRDNAKNTVYLQMNSLKPEDTAVYYCAAQPAHPRRYDYWGQGTQVTVSS | high polyreactivity |
| QVQLLESVGGLVQAGGSLRLSCAASGRTFSRYAMGSYRQAPGKERELVATISSSGGTTYYADSVKGRFTISRDNAKNTVYLQMNSLKPEDTAVYYCNAESKKRTHASGYDYWGHGTQVTVSS | low polyreactivity |

| Sequence | polyreactivity (PSR sort gate) |
| --- | --- |
| QVQLVESGGGLVQAGGSIRLSCAASGNIFVSYAMGWYRQAPAKERELVAAISKSGGSTYYADSVKGRFTISRDNAKNTVYLQMNSLKPEDTAVYYCAARWYNRVKYQKYNYWGQGTQVTVSS | high polyreactivity |
| QVQLVESGGGLVQAGGSLRLSCAASGFIFSGYAMGWYRQAPGKEREVVATISRGGSTTYYADSVKGRFTISRDNAKNTVYLQKTSLKPEETGAYYCATVGYPYRPVYIRRPYRYNSWGQGTQVTVSS | high polyreactivity |
| QVQLVESGGGLVQAGGSHRISCAASGSTFPGYPMGWYRQAPGKERELVAAGGSTYYADSVKGRFTISRDNAKNTVYLQINSLKPEDTAVYYCAATWGSVQKGTYYYWGQGTQVTVSS | low polyreactivity |
| QVQLVESGGGLVQAGGSLRLSCAASGSIFRGYAMGWYRQAPEKERELVAAISRRGGSTYYADSVKGRFTISRDNAKNTVYLQMNSLKPEDTAVYYCAKDGTGAGTYDYWGQGTQVTVSS | low polyreactivity |
| QVQLVESGGGLVQAGGSLRLSCAASGRIFKYYAMGWYRQAPGKERELVARISSGGGRTYYADSVKGRFTISRDNAKNTVYLQMNSLKPEDTAVYYCAADPPASYHTWYGYWGQGTQVTVSS | high polyreactivity |
| QVQLVESGGGLVQAGGSLRLSCAASGGTFPQFAMGWYRQAPGKEREFVADITSRGGTTYYADSVKGRFTISRDNAKNTVYLQMNSLKPEDTAVYYCAADNPADWWGLDYWGQGTQVTVSS | low polyreactivity |
| QVHLVESGGGKVQAGGRLRLSCAASGSTFFRYAMGWYRQAPGKERELVAAISWSGGTTYYADSVKGRFPISRDIAKNTVYLQMNSLKPEDTAVYYCNAVRQGHILDYWGQGTQVTVSS | low polyreactivity |
| QVQLVESGGGLVQAGGSLRLSCAASGSIFDYNGMGWYRQAPGKERELVATITLSTARTYYADSVKGRFTISRDNAKNTVYLQMNSLKPEDTAVYYCAATRLTPYIYGGKYNYWGQGTQVTVSS | high polyreactivity |
| QVQLVESGGGLVQAGGSLRLSCAASGSTFQQYAMGWYRQAPGKERELVAAISWRGGSTYYADSVKGRFTISRDNAKNTVYFQMNSLKPEDTAFYYCAARYQPGGFSRYDYYYWGQGTQVTVSS | high polyreactivity |
| QVQLVESGGGLVQAGGSLRLSCAASGITFVRNAMGWYRQAPGKEREFVAAISWSGGSTYYADSVKGRFTISRDNAKNTVYLQMNSLKPEDTAVYYCAKRSRGVKYDYWGQGTQVTVSS | high polyreactivity |
| QVQLVESGGGLVQAGGSLRLSCAASGRIFYSYAMGWYRQAPGKERELVATITRRGSSTYYADSVKGRFTISRDNAKNTVYLQMNSLKPEDTAVYYCNAVGVRRAIGYPSQTEYGYWGQGTQVTVSS | high polyreactivity |
| QVQLVESGGGLVQAGGSLRLSCAASGRIFDFYAMGWYRQAPGKERELVAAISWDGSDTYYADSVKGRFTISRDNAKNTVYLQMNSLKPEDTAVYYCAADYYSPSGQEYNYWGQGTQVTVSS | high polyreactivity |
| QVQLVESGGGLVQAGGSLRLSCAASGITIDYYAMGWYRQAPGKERELVAAISSVGNTNYADSVKGRFTISRDNAKNTVYLQMNSLKPEDTAVYYCATYAYYLYHVGTAYDYWGQGTQVTVSS | high polyreactivity |
| QVQLVESGGGLVQAGGSLRLSCAASGITFLEYAMGWYRQAPGKERELVATINSGGSTNYADSVKGRFTISRDNAKNTVYLQMNSLKPVDTAVYYCAADYGSDYTKGDYWGQGTQVTVSS | low polyreactivity |
| QVQLHESGGGLVQAGGGLRLSSAASGSISSTGFMGWYRQAPGKEREPVAAIAPGTTTYYADSVKGRFTISRDNAKNTVYLQMNSLRPEDTAVYYCAVFTDNRVAFLYWGQGTQVTVSS | low polyreactivity |

— the nanobody polyreactivity screen of Harvey et al. (2022)
